The source of these data is paper PMC8567585.

As a reminder, the stoichiometry N is the number of molecules, sites or subunits per partner or assembly.

In series [1] the target is T1, His-OsbR (Chromobacterium violaceum ATCC 12472) (UniProt Q7NR79).
T1 sequence: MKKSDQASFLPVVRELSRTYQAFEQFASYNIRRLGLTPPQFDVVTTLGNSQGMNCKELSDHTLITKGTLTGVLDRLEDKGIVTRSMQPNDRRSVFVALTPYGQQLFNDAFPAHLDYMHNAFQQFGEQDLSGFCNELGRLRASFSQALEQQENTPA
Put plainly: EMSA. Particulars: EMSA with 32P-labeled PCR probes and reduced His-OsbR; buffer, salt, pH and temperature not given (refers to earlier papers); CHP pretreatment at room …. A general note: In EMSA bound probe runs differently from free probe, usually more slowly.

Series [2] has as its target His-OsbR (oxidative stress response and biofilm formation regulator, CV_3905, MarR family) (Chromobacterium violaceum). The experiment in a line: non-reducing SDS-PAGE (covalent dimers after oxidation); purified His-OsbR incubated with the oxidants TBHP, CHP or H2O2 at 0.1 and 1 mM, room temperature, alkylated with 100 mM NEM for 2 h, non-reducing SDS-PAGE, Coomassie staining; monomer to covalent dimer.

For the substance “ATCGGGATGCCCAGCACCGCGAACATCATCCAGACCATGAAGCAGAGGGTGAAAGCCAGCGTGCTGCTGGCCAGCACGCTGTAGCGTTTGAATGTCGGGGAAGTCATGGCGCCATATCCATGGAGTGGTCATGGCTACCACGATAAGCGACGGCGGCGCGCGCCGATATTCGTCTGTCGCAGGACTGTCAGTCTGCCAACGGACGAGGCGGATTAACCCTTACGGCTGGCGCCGGCTACTCCCAATGGGGGAGAGTCA (double strand) [narK1 promoter]”, the binding result in series [1] is on record as “no binding”. As to “CCTCGTAAAAGCGGATGGCGCGGGTGGTGATGTCGAACTCCTGCGCGAGTTCGGTGATGTTGAAAACCTGTTCGCCCATGCGTCTGTCCCTTTATCTTCCCGCTGCGGCCACGCGCGCCACAGTCGGGTGCTTTTGCATTCATTGTCTGTTGACGTTGACGTAAACGTCAAGTTATCGTGATCGAAAGTAGAGCAAACAGTCCAGGAGAAGCAGATGAGCCAGAAAATCGGCGTGGTGGGCGCGGGCACGATGGGCAACGGCATCGCCCAGGTCTTCGCGATGAAGGGTTTCGACG (double strand) [CV_2087 promoter]”, the binding result in series [1] was “binds”. Still for that read-out and setting: under “CTCGCTGGCCGATCTGGGACGCGGCCCGGTGCGGGCGGCCGCCTGATCGCGGTTTCGCGCCCGCTTGGCGCGGGCGCGTCGCGGTTCCGCATAATAATAAATTGCTTGCAATTAAATAGTGCACTATTTATTATGCGGCCATGGAACAAGAAAACACGTGCCCGCCGCAGGACGCGCTTTTGCGGCTGGACCAGCAACTCTGCTTCGCGCTGTATTCCGCC (double strand) [ohrR promoter]” stands “no binding”; under “GACCAAGTGATAGACGCCGGCACGCTGCGCGCGGTGTACGGCGTGAACGGCCGGGTGGAGCGCTGCACGCAGGGCGTGCCCCACGTGCTGGTGGACGGCCTGGCCGCAGGCTGAGCGCCGCGGCGGGGCGGCGCTCGCCGTCCCGCCCGATTGAAATCTTCACTCCCTCGCAAGAATGCGATTGAAATTGATATTCAATCGCATTTATGATGTCAGCCTCCGCTCAGGAGCCGCCCAGGCGGCCAAAACCAATAACAGGCAGACATCCTCATGACCGAGAAGCTTTAGGCC (double strand) [cbaF promoter]”, “no binding”; under “GACCATACTAGACAGCTACGCCACCTTCAGCGCCATCGACCGCCACAGCGAAAGCCGCCAGAAACATCCCTTCGTCGCGCAATTGCTGCGCCGCTATCCGCAAATCACCACGCTG (double strand) [CV_0208 coding region]”, “no binding”.

“His-OsbR (oxidative stress response and biofilm formation regulator, CV_3905, MarR family) (natural protein)”: the stoichiometry N in series [2] worked out at 2. Turning to “TTGGATCCTGCCGGAGCGGAATGCAACTGGACGATATCGCCGGATTGAGGCAGTCGCTGTGCGATCTGCGCGACCGGCTGCTGCAATGAACCCGTCAGGGTTTTGATAGTTAGATAGTGCACTATTAAATAGCTCATTATTTTAATCGCAACGGCGTCAAGCCAAGGAGAGCCAGATGAACCCTCTGCAAAAAGTACTGTATACCGCCGAAGCCACCGCCTGCAGTAAT (double strand) [ohrA promoter]”, the binding result in series [1] is reported as “binds”.
